Measured values from PMC5618617 (International Journal of Molecular Sciences, 2017).
Each block holds one binder with its values, some of them ahead of it. No end group written: not given here. cellulose support = cellulose support (Whatman 50 cellulose membrane) to which the peptide C-terminus is covalently bound

Assays:
Conditions in all cases: both partners purified
[1] = biological target: T1, human c-Met extracellular domain (ECD)-fragment crystallizable region (Fc) (human, UniProt P08581); assay: ELISA; competitive: recombinant human c-Met coated; pre-bound with or without 2.5 µg/mL HGF 1 h at room temperature; then IRCR201 or huOA5D5.v2 1 h; antibody detected with anti-human IgG F(ab')2-HRP
T1 construct: hepatocyte growth factor receptor (c-Met), human, extracellular domain; c-Met is naturally cut into alpha and beta chains; also called human c-Met ECD-Fc; recombinant human whole c-Met ECD-Fc; source: bought: Sino Biological, 10692-H03H

[2] = biological target: T2, c-Met peptide E-7 (523–537) (Homo sapiens (Human)., cysteine pairing not given here); assay: peptide or protein array; overlapping 15-mer peptides of c-Met 1-932, 5 nmol/spot, bound by the C-terminus to cellulose; scFv in 5% skim milk at 4 °C overnight; bound scFv electroblotted to PVDF and detected with anti-HA-peroxidase
T2 construct: c-Met, human, amino acids 523-537; source: synthetic peptide (JPT Peptide Technologies), on cellulose membrane
T2 chain: FQSCSQCLSAPPFVQ-{cellulose support}

[3] = biological target: T3, c-Met peptide F-7 (527–541) (Homo sapiens (Human)., cysteine pairing not given here); assay: as above
T3 construct: c-Met, human, amino acids 527-541; source: synthetic peptide (JPT Peptide Technologies), on cellulose membrane
T3 chain: SQCLSAPPFVQCGWC-{cellulose support}

[4] = biological target: T4, c-Met peptide G-7 (531–545) (Homo sapiens (Human)., cysteine pairing not given here); assay: as above
T4 construct: c-Met, human, amino acids 531-545; source: synthetic peptide (JPT Peptide Technologies), on cellulose membrane
T4 chain: SAPPFVQCGWCHDKC-{cellulose support}

bovine serum albumin = biological target: T5, bovine serum albumin (Bos taurus (Bovine)., UniProt P02769); assay: SPR; Biacore T100; human c-Met, mouse c-Met or BSA amine-coupled on a CM5 chip; different concentrations of purified IRCR201 injected
T5 construct: serum albumin, bovine; also called BSA

[5] = biological target: T1, human c-Met extracellular domain …; assay: as above
mouse c-Met ECD-Fc = biological target: T6, mouse c-Met ECD-Fc (Mus musculus, UniProt P16056); assay: as above
T6 construct: hepatocyte growth factor receptor (c-Met), mouse, extracellular domain; source: bought: Sino Biological, 50622-M02H

[6] = biological target: T7, human RON (recepteur d'origine nantais) ECD-Fc (Homo sapiens, UniProt Q04912); assay: ELISA; 0.1 µg antigen coated per well at 4 °C overnight, blocked with 3% skim milk; dilutions of IRCR201 1 h at room temperature; goat anti-human IgG F(ab')2-HRP
T7 construct: RON receptor tyrosine kinase (macrophage-stimulating protein receptor), human, extracellular domain; The legend calls it ECD-Fc; the catalogue number's ending (H08H) may stand for a His-tagged product (surmise); also called human RON protein; source: bought: Sino Biological, 11608-H08H

binding result [1]: binds
B1: onartuzumab (huOA5D5.v2) (antibody, V domains shown)
VH: EVQLVESGGGLVQPGGSLRLSCAASGYTFTSYWLHWVRQAPGKGLEWVGMIDPSNSDTRFNPNFKDRFTISADTSKNTAYLQMNSLRAEDTAVYYCATYRSYVTPLDYWGQGTLVTVSS
VL: DIQMTQSPSSLSASVGDRVTITCKSSQSLLYTSSQKNYLAWYQQKPGKAPKLLIYWASTRESGVPSRFSGSGSGTDFTLTISSLQPEDFATYYCQQYYAYPWTFGQGTKVEIK
notes: second chain of the monovalent knob-into-hole format; Engineered monovalent (one-armed) antibody made with knob-into-hole technology; also called MetMab; source: Expi293 transient mammalian expression system, purified (HiTrap Mabselect SuRe); copies: 1 + 1 + 1

binding result [2]: binds
binding result [3]: binds
binding result [4]: binds
B2: IRCR201 single-chain variable fragment (scFv) (scFv, V domains shown)
VH: EVQLLESGGGLVQPGGSLRLSCAASGFTFSNYAMSWVRQAPGKGLEWVSGISYSGGSTYYADSVKGRFTISRDNSKNTLYLQMNSLRAEDTAVYYCAKASRSCQRPACSYANGMDVWGQGTLVTVSS
VL: QSVLTQPPSASGTPGQRVTISCTGSSSNIGNNYVTWYQQLPGTAPKLLIYYNNHRPSGVPDRFSGSKSGTSASLAISGLQSEDEADYYCGSWDYSLSAYVFGGGTKLTVL
notes: VH and VL as in m1; Detected with anti-HA-peroxidase; also called scFv of IRCR201; IRCR201 scFv; source: E. coli TOP10F', purified from bacterial lysates (Ni-NTA agarose)

binding result (bovine serum albumin): no binding
Kd [5]: 0.721 nM
koff [5]: 0.00304 s⁻¹
kon [5]: 4.23e+06 M⁻¹ s⁻¹
Kd (mouse c-Met ECD-Fc): 0.845 nM
koff (mouse c-Met ECD-Fc): 0.00323 s⁻¹
kon (mouse c-Met ECD-Fc): 3.83e+06 M⁻¹ s⁻¹
binding result [6]: no binding
B3: IRCR201 (antibody, V domains shown)
VH: B2 VH
VL: B2 VL
notes: CDR-H3 of 18 amino acids; IgG1; frameworks are not pointed to; also called IRCR201 IgG1; fully human bivalent anti-c-Met antibody; source: Expi293 transient mammalian expression system, purified (HiTrap Mabselect SuRe); copies: 2 + 2
